Reference: the supplement of paper PMC12042874
± gives the uncertainty stated by the source.

Assay: amyloid nucleation score (Sup35N fusion, yeast selection) (log enrichment); library NNK1; higher = more nucleation; inactive = no reads after selection
How it was run: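 Three technical output replicates were used for random libraries. Psi-negative yeast expressing peptides of 20 random codons fused to Sup35N were induced with 100 μM copper sulfate for 24 hours and grown 7 days at 30°C on medium lacking adenine and uracil, and input and output plasmid inserts were Illumina-sequenced, excluding sequences with under 100 input reads. The nucleation score is the DiMSum log enrichment of output over input reads, centred on the mode score of non-aggregating sequences.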

Row | Substance | amyloid nucleation score
1 | RCHTLFIVSLYRRVRNHMSC | 0.558 ± 0.79
2 | NSVWLLTNVLKFGTNVSRHR | 2.57 ± 0.16
3 | TLPYSKKSLTQFRRGAKICY | 0.588 ± 0.56
4 | YRYSVQVLNCAKGAENGVII | -0.152 ± 0.32
5 | DCLSSGFLDTLYVVQVRGSD | inactive
6 | VYYLIVHLHSGMLHQIVELS | 0.707 ± 0.51
7 | LCFSGD | -0.352 ± 0.99
8 | SRIFCTWPVSVIYNRADSAQ | 0.838 ± 0.56
9 | WTTMFAFAF | 1.42 ± 0.44
10 | RFGTY | -0.067 ± 0.94
11 | LSLRDLGSLALRGLKMNATR | -0.397 ± 0.91
12 | CFCFKPSVKE | -1.71 ± 2.4
13 | LKYMYHYVSMKVFVLGISMR | 0.005 ± 1.7
14 | TSCEGEDFGRKLSREMVLWC | 0.234 ± 0.68
15 | SYCYKDGWELVLEYLFVNCT | 1.21 ± 0.45
16 | VGVRRDTCSPRQVLGHTS | 0.301 ± 0.52
17 | ITSYSFIRSNGSVMGSWGSV | -0.092 ± 0.65
18 | YHGIPFCMFFRVYAVR | 0.216 ± 1.4
19 | LFIVPRRGARRYRVVITKSV | 0.003 ± 0.46
20 | MGTSITI | -0.202 ± 0.84
21 | LSGLRNVLPLLTMYASIMKV | 0.688 ± 0.7
22 | YLHSSGGYNFSVRVSKYNCE | -0.689 ± 0.61
23 | NSRFKNFMSNTHVH | inactive
24 | CLILG | -1.31 ± 0.52
25 | VGMYGSVSFMS | -1.02 ± 0.89

Row | Substance | amyloid nucleation score
26 | CCPDSQIIRYNIYAVVYLRM | 1.92 ± 0.57
27 | CYKAAQGFIFSRK | 0.482 ± 0.32
28 | IRMVFAMVSYSCDYRATAGT | 2.65 ± 0.18
29 | LRLMLCFMFYAWTALCKPRD | 0.31 ± 0.23
30 | SGVVTCVVFL | 5.38 ± 0.066
31 | IRELRSDFSGSMVDERFLGE | 0.489 ± 1.1
32 | DMNLRVDLYMKFEWSGLVER | 0.109 ± 0.36
33 | FYPRM | 0.781 ± 0.54
34 | RTLGDSNGNNVGLQVVPKCL | -0.108 ± 0.31
35 | LSIGFGNPVAS | -0.312 ± 0.29
36 | GTFDSN | 0.045 ± 0.46
37 | IFYSLQLVTARSTEVMGDTP | 1.1 ± 0.88
38 | RLLASGFLSTRFR | 0.143 ± 0.86
39 | VAISQCLNNSNSRNIIVVKW | 1.69 ± 0.34
40 | LYGSRPYSTTKTY | -0.11 ± 0.33
41 | QNKVCNCDRVFTRFIESNSL | -0.254 ± 0.38
42 | SIRLPVIKRSRL | -0.109 ± 0.66
43 | SIRWVIHDRVSRVYDVLRCG | 0.944 ± 0.54
44 | TYEPLTLMNGVLSVRSGPGI | -0.508 ± 1
45 | RQLTSVCYKSVDGE | 0.516 ± 0.93
46 | SCTYSIFCDNISRTLGH | -0.287 ± 0.26
47 | EVCCNVKTL | 0.431 ± 0.28
48 | EGNSDCLWVGYGASMTRWVR | 0.258 ± 0.88
49 | LWTFGDRSVWLDDSMRWVPR | -0.145 ± 1.1
50 | ANQRSAGYPSGYKCTYYNRS | 0.838 ± 0.41

Row | Substance | amyloid nucleation score
51 | SEIPVNGLARLCRGRYRNRQ | 4.66 ± 0.11
52 | VAVVLYAQTV | -0.376 ± 0.63
53 | GWRNGKCFDGASPEWVLGHA | -0.39 ± 1.2
54 | LPWGRTAFENFFVTMFFSKC | -0.994 ± 1.5
55 | EGRSWLGTESGLYGNVREND | 0.577 ± 0.68
56 | QLVTVADLLTKFPGILSWSG | inactive
57 | RFRVCCNRSKRGGYGPNVER | -0.363 ± 0.67
58 | ILHWEKRDSTVKILSLSIHW | 0.385 ± 0.46
59 | FVSGVFGYRMYDPRRVWLSL | -0.178 ± 0.7
60 | ILNGFTRYLR | -0.12 ± 0.36
61 | RLYPL | 0.908 ± 0.34
62 | RICKGIAGKSENCNTLYNSS | inactive
63 | RSWDRYMFGRNRCVDWGR | 0.107 ± 0.9
64 | LCAARNFSL | -0.277 ± 0.5
65 | AINLRLV | 0.23 ± 0.36
66 | FASDRLYWTWK | 0.255 ± 0.53
67 | FEVNFPAYIYWSDCPVVGVS | -0.127 ± 0.38
68 | LVENLWTLRRRLVGALF | 0.31 ± 0.4
69 | LNASGIVVCFYSSDNTCTYE | 4.49 ± 0.089
70 | RSQVSSFTYSPSRATPKRRL | 0.508 ± 0.5
71 | VMSVSWVCIGCLSEDISWVF | 5.884 ± 0.044
72 | WHTCYHSWSASIVLAPVSTT | -0.009 ± 0.39
73 | LLLSILRWDEDMMLNFW | 1.21 ± 0.43
74 | WSHADILV | inactive
75 | VRFTTIVYPSWFFSAW | 0.565 ± 0.45

Row | Substance | amyloid nucleation score
76 | VERLAT | -0.259 ± 0.73
77 | FFLSLARVGVILHPMMVLTG | -0.35 ± 0.64
78 | VNKHL | -0.329 ± 0.36
79 | SNRFFVPRA | -0.334 ± 0.5
80 | ENRFARCYRVV | 2.1 ± 0.1
81 | VLVSSCSTGDLVSSDPHSSV | inactive
82 | CHSINLGLNPFKYVNLPNGH | 2.38 ± 0.15
83 | LAEYHYGSMFSLNSTYYNLS | 5.91 ± 0.069
84 | GTFALIN | -1.2 ± 0.68
85 | IVTKGGLNNVCAVYLCYVGS | 6.46 ± 0.065
86 | RKASWRWMSSMSNVGWTCPN | 4.67 ± 0.12
87 | SWGTGVIPMVRNSLRECTEL | -0.388 ± 0.98
88 | RQLKVARTGLWLGFTFCIQE | 0.24 ± 0.89
89 | LLKENWFNCSLWHDIVGISM | -0.596 ± 0.59
90 | YSGPGAQFIAMLNKLWCTAH | 1.23 ± 0.24
91 | VSPGVFMGVLLMALKFFQAK | -0.303 ± 0.71
92 | WVQFLDMGAVMKIWLVKCFP | -0.485 ± 1.1
93 | MLLSWMNAMVFTRRVHLAEP | -0.469 ± 1.2
94 | AKSVYILVR | inactive
95 | TFHWMKDAALSQSSVKRTMA | 0.359 ± 0.59
96 | KPKVVNMVEGLRGFCGLLDL | -0.602 ± 0.94
97 | CSVRAVGILRWAFFGEHPLN | -0.422 ± 0.41
98 | VNDQAGRLGD | 0.904 ± 0.61
99 | YGHLVYTDHVWRRFETVKG | 0.661 ± 0.84
100 | MHPAVVYCPLIK | 0.735 ± 0.64

Row | Substance | amyloid nucleation score
101 | LICPSLHPRAVGECSSVCWR | 0.157 ± 0.19
102 | GWIGCHDWGLRLIAHKMRGR | 0.938 ± 0.88
103 | RLVSMEVCCTARLPCPYLLK | 2.09 ± 0.25
104 | GLIMYPRGYMCKSIT | 0.813 ± 0.43
105 | FVYNTSFLYSVCNNWAKRSP | 7.758 ± 0.053
106 | RFNNDMTSLLSGRIAMEYSY | -0.344 ± 0.62
107 | SWNVVFKVPLGLRVLYGYLC | -0.197 ± 0.28
108 | SMLRNTNLNAIPKFTVSFVL | -0.021 ± 0.69
109 | LSNRSKNDGKSRLIPMDDVH | inactive
110 | RFLVFPRFCCTRNKPRSETL | 0.616 ± 1.2
111 | QDFNNEFFFSCRAAAKTTNA | -1.54 ± 1.7
112 | VWTMIYSTCGSDFYFCSVEL | 0.715 ± 0.47
113 | CCIFIDFTVIALGRTLVVRH | -1.17 ± 1.2
114 | DMDGDSLGVFWALATVYQAH | -0.551 ± 0.36
115 | WVWDCFHDCVPYMGRTGLVA | -0.56 ± 0.93
116 | IQNISLGVVGVMWNPHTCVV | -0.708 ± 0.66
117 | SSKLDVCEFADDGQLVFGVG | -0.394 ± 0.61
118 | YCGSTWASVWGPIICPRYRA | 0.208 ± 0.33
119 | RFFGKYSTEGLNL | 0.992 ± 0.76
120 | SGDSSYIMLLVVAPMYCQLP | -0.148 ± 0.83
121 | MRGMADYC | -0.251 ± 0.88
122 | RVTVTLFYMFNNRGEGKSQA | 3.44 ± 0.12
123 | WAYYCYP | -2.01 ± 2.4
124 | MQWPYCGMTFCYTW | -0.047 ± 0.57
125 | EAIISNCNFVIQIMCYHYTA | inactive

Row | Substance | amyloid nucleation score
126 | FRSFNGTCSGVQWSVFVIWV | -0.18 ± 0.77
127 | QLNFYIR | 8.212 ± 0.061
128 | SWALRWYPELIET | 0.076 ± 0.29
129 | TLVLSLAHPCASGNKPDKSG | 0.863 ± 0.32
130 | RLHAVTSLCR | 5.42 ± 0.1
131 | FTNASDYYELVLHCRGAEKE | 0.523 ± 0.3
132 | VVCVLRVVDVMFASRS | 0.694 ± 1.2
133 | GIAAYNGDLWMRLCYL | -0.255 ± 0.88
134 | QLKGSSWYYENRVGRSGRGV | 0.698 ± 0.49
135 | VVATKLSV | -0.95 ± 1.4
136 | HTESRSSYGYVCPGYNLISF | 0.2 ± 0.63
137 | NGNLKRSSEVFHCFGISLEF | 0.694 ± 0.36
138 | SGGSEELLRVVMVSSMKGPW | -0.254 ± 0.81
139 | TSCSVSLVWLFLGVRLCVLC | -0.009 ± 0.24
140 | PVDNLFNFLSGSCAISNFQK | 0.638 ± 0.58
141 | QPNNGVPQIMDTV | 0.184 ± 0.43
142 | DVILCAK | inactive
143 | DSWRSIIGFRERVSTMQYLI | 0.96 ± 0.66
144 | SLPVLCASRYHLHYRMGFSG | 1 ± 0.69
145 | GGALSCVRDF | 1.39 ± 0.78
146 | YESRCGWASRNFSLSENQNS | inactive
147 | NTKSSVSYYFFMGIIFFSEI | 0.355 ± 0.32
148 | FYRFDQRNLEDVGGGMYGSS | 0.3 ± 0.83
149 | QVSCSGFYRRDLSSRL | 0.614 ± 0.56
150 | LMFLGWSNRKMTSHSIMTVL | 0.293 ± 1

Row | Substance | amyloid nucleation score
151 | LWGRFYIYHSLFHRSHHVKL | -0.284 ± 1
152 | AARRLNELSSELKWMCSATD | -0.077 ± 0.4
153 | DNVFEALAL | inactive
154 | VYLNFTISKVEVVTFFFIMG | 0.165 ± 0.34
155 | CSGNRMDPLTVRLFVGLGIL | 0.347 ± 0.43
156 | RDSLESTVGVKMGNASGVCR | -0.818 ± 1.6
157 | RLTCFRGLGNIYIELINMVN | -0.376 ± 0.23
158 | VPPASQISGPWARLSEMVSH | -1.12 ± 0.7
159 | ALVTVIHAPVFYLWNAFYLC | 7.396 ± 0.048
160 | MKVDNSVLMPATTHQRNMQG | -0.211 ± 0.67
161 | YRTSWEAVQGWSFS | -1.64 ± 1.3
162 | MCGQLV | -0.447 ± 0.74
163 | NRSLKCICRRSVGRRSQNLR | 0.57 ± 0.5
164 | FSFGIVSVMGYVLYRRRPWA | 1.08 ± 0.63
165 | AIFNTGNMWDTLRRHSGVHV | -0.059 ± 1.2
166 | RMAWMEGRPGDRMSRYGTSC | inactive
167 | DREIAMVWHLSYIIFYFSES | -0.993 ± 0.33
168 | FPDMCILRILYVKVLV | -1.52 ± 1.6
169 | HKIDINSVLLLKCVVYVGCL | 4.12 ± 0.066
170 | LIHRA | -0.041 ± 0.32
171 | TWRNNLKWHMYTYLLPAHIG | -0.42 ± 0.46
